The results in this text go back to the supplement of paper PMC10567573.

First the molecules themselves.
B1: PBXIP1 (parent)
chain: FGEDGIFRHDRLRFRDFVDALEDS
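Also: lentivirally expressed fusions sorted by FACS into six bins by GFP to DsRed ratio, PSI derived from sequencing read proportions per bin multiplied by bin number.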

The variants in the series derive from B1. Put plainly: protein stability index of a GFP-peptide fusion (GPS, HEK-293T) (PSI 1-6); higher = more stable. The following applies: c terminus: a fixed tail appended.
For the variant FGEDGIFRHDRLWFRDFVDALEDS, the protein stability index amounted to 1.99.

Take FGEDGIFRHDRLCFRDFVDALEDS: the protein stability index is 2.73.

With FGEDGIFRHDRLHFRDFVDALEDS, the protein stability index is 2.57.

Regarding FGEDGIFRHDRLVFRDFVDALEDS, the protein stability index was 2.72.

For the variant FGEDGIFRHDRLKFRDFVDALEDS, the protein stability index was found to be 2.85.

Consider FGEDGIFRHDRLPFRDFVDALEDS, for which the protein stability index amounted to 3.35.

Regarding FGEDGIFRHDRLLFRDFVDALEDS, the protein stability index turned out to be 2.71.

For the variant FGEDGIFRHDRLDFRDFVDALEDS, the protein stability index was determined as 3.29.

Take FGEDGIFRHDRLQFRDFVDALEDS: the protein stability index came out at 3.74.

FGEDGIFRHDRLNFRDFVDALEDS: the protein stability index was determined as 3.56.

Regarding FGEDGIFRHDRLMFRDFVDALEDS, the protein stability index stood at 2.79.

As to FGEDGIFRHDRLTFRDFVDALEDS, the protein stability index is 3.26.

With FGEDGIFRHDRLEFRDFVDALEDS, the protein stability index stood at 4.02.

Turning to FGEDGIFRHDRLSFRDFVDALEDS, the protein stability index worked out at 2.92.

Turning to FGEDGIFRHDRLGFRDFVDALEDS, the protein stability index was determined as 2.9.

As to FGEDGIFRHDRLIFRDFVDALEDS, the protein stability index was 2.26.

With FGEDGIFRHDRLYFRDFVDALEDS, the protein stability index is 2.32.

As for FGEDGIFRHDRLAFRDFVDALEDS, the protein stability index stood at 3.13.

Regarding FGEDGIFRHDRLFFRDFVDALEDS, the protein stability index came to 2.25.

In the case of FGEDGIFRHSRLRFRDFVDALEDS, the protein stability index is 2.06.

As for FGEDGIFRHQRLRFRDFVDALEDS, the protein stability index amounted to 1.86.

Take FGEDGIFRHNRLRFRDFVDALEDS: the protein stability index worked out at 2.83.

Take FGEDGIFRHHRLRFRDFVDALEDS: the protein stability index is 2.39.

In the case of FGEDGIFRHGRLRFRDFVDALEDS, the protein stability index was 2.33.

Turning to FGEDGIFRHMRLRFRDFVDALEDS, the protein stability index is 2.19.

In the case of FGEDGIFRHYRLRFRDFVDALEDS, the protein stability index was determined as 1.79.

In the case of FGEDGIFRHIRLRFRDFVDALEDS, the protein stability index was determined as 1.67.

FGEDGIFRHRRLRFRDFVDALEDS: the protein stability index was 2.15.

With FGEDGIFRHLRLRFRDFVDALEDS, the protein stability index was 2.16.

In the case of FGEDGIFRHTRLRFRDFVDALEDS, the protein stability index is 2.07.

FGEDGIFRHCRLRFRDFVDALEDS: the protein stability index stood at 1.85.

As for FGEDGIFRHVRLRFRDFVDALEDS, the protein stability index was determined as 1.52.

With FGEDGIFRHKRLRFRDFVDALEDS, the protein stability index amounted to 2.04.

For FGEDGIFRHERLRFRDFVDALEDS, the protein stability index was found to be 2.63.

FGEDGIFRHFRLRFRDFVDALEDS: the protein stability index is 2.16.

Take FGEDGIFRHPRLRFRDFVDALEDS: the protein stability index stood at 1.85.

As for FGEDGIFRHARLRFRDFVDALEDS, the protein stability index is 1.96.

In the case of FGEDGIFRHWRLRFRDFVDALEDS, the protein stability index was 1.74.

For FGEDGIFRHDRARFRDFVDALEDS, the protein stability index is 2.88.

For FGEDGIFRHDRVRFRDFVDALEDS, the protein stability index was determined as 2.65.

FGEDGIFRHDRERFRDFVDALEDS: the protein stability index was found to be 3.51.

For the variant FGEDGIFRHDRQRFRDFVDALEDS, the protein stability index was 3.17.

FGEDGIFRHDRMRFRDFVDALEDS: the protein stability index turned out to be 2.51.

As for FGEDGIFRHDRTRFRDFVDALEDS, the protein stability index is 2.44.

With FGEDGIFRHDRYRFRDFVDALEDS, the protein stability index came to 2.71.

Consider FGEDGIFRHDRIRFRDFVDALEDS, for which the protein stability index was 3.05.

As for FGEDGIFRHDRDRFRDFVDALEDS, the protein stability index was found to be 3.38.

Turning to FGEDGIFRHDRNRFRDFVDALEDS, the protein stability index was found to be 3.14.

On to FGEDGIFRHDRPRFRDFVDALEDS, for which the protein stability index was 2.43.

FGEDGIFRHDRSRFRDFVDALEDS: the protein stability index came to 2.55.

For FGEDGIFRHDRFRFRDFVDALEDS, the protein stability index came out at 2.56.

Consider FGEDGIFRHDRWRFRDFVDALEDS, for which the protein stability index was 2.7.

On to FGEDGIFRHDRRRFRDFVDALEDS, for which the protein stability index was determined as 2.58.

In the case of FGEDGIFRHDRKRFRDFVDALEDS, the protein stability index was found to be 2.46.

On to FGEDGIFRHDRCRFRDFVDALEDS, for which the protein stability index worked out at 2.74.

As to FGEDGIFRHDRHRFRDFVDALEDS, the protein stability index turned out to be 2.73.

For FGEDGIFRHDRGRFRDFVDALEDS, the protein stability index was 3.31.

Turning to FGEDGIFRHDMLRFRDFVDALEDS, the protein stability index came to 2.44.

For the variant FGEDGIFRHDDLRFRDFVDALEDS, the protein stability index came out at 3.95.

In the case of FGEDGIFRHDQLRFRDFVDALEDS, the protein stability index is 3.29.

Consider FGEDGIFRHDILRFRDFVDALEDS, for which the protein stability index stood at 2.43.

Consider FGEDGIFRHDNLRFRDFVDALEDS, for which the protein stability index came to 3.09.

On to FGEDGIFRHDALRFRDFVDALEDS, for which the protein stability index was found to be 2.57.

As for FGEDGIFRHDFLRFRDFVDALEDS, the protein stability index came to 2.5.

As for FGEDGIFRHDWLRFRDFVDALEDS, the protein stability index was 2.49.

FGEDGIFRHDSLRFRDFVDALEDS: the protein stability index is 2.73.

FGEDGIFRHDHLRFRDFVDALEDS: the protein stability index stood at 2.83.

As to FGEDGIFRHDPLRFRDFVDALEDS, the protein stability index was determined as 3.13.

Consider FGEDGIFRHDLLRFRDFVDALEDS, for which the protein stability index came to 2.33.

For FGEDGIFRHDVLRFRDFVDALEDS, the protein stability index is 2.46.

Regarding FGEDGIFRHDYLRFRDFVDALEDS, the protein stability index is 2.35.

For the variant FGEDGIFRHDCLRFRDFVDALEDS, the protein stability index was 2.73.

As to FGEDGIFRHDTLRFRDFVDALEDS, the protein stability index is 3.02.

With FGEDGIFRHDGLRFRDFVDALEDS, the protein stability index was 3.12.

Consider FGEDGIFRHDKLRFRDFVDALEDS, for which the protein stability index was 2.57.

For the variant FGEDGIFRHDELRFRDFVDALEDS, the protein stability index is 3.36.

Consider FGEDGIFRHDRLRARDFVDALEDS, for which the protein stability index was found to be 3.43.

Take FGEDGIFRYDRLRFRDFVDALEDS: the protein stability index is 2.46.

For FGEDGIFRVDRLRFRDFVDALEDS, the protein stability index turned out to be 2.82.

Turning to FGEDGIFRNDRLRFRDFVDALEDS, the protein stability index was determined as 3.28.

As for FGEDGIFRRDRLRFRDFVDALEDS, the protein stability index turned out to be 2.39.

FGEDGIFRDDRLRFRDFVDALEDS: the protein stability index is 3.76.

Take FGEDGIFRQDRLRFRDFVDALEDS: the protein stability index was found to be 2.42.

In the case of FGEDGIFRTDRLRFRDFVDALEDS, the protein stability index is 2.4.

For the variant FGEDGIFREDRLRFRDFVDALEDS, the protein stability index stood at 3.5.

As to FGEDGIFRFDRLRFRDFVDALEDS, the protein stability index was determined as 2.26.

On to FGEDGIFRLDRLRFRDFVDALEDS, for which the protein stability index was determined as 2.4.

With FGEDGIFRSDRLRFRDFVDALEDS, the protein stability index turned out to be 2.79.

Consider FGEDGIFRPDRLRFRDFVDALEDS, for which the protein stability index is 2.88.

For FGEDGIFRMDRLRFRDFVDALEDS, the protein stability index amounted to 2.73.

For the variant FGEDGIFRWDRLRFRDFVDALEDS, the protein stability index turned out to be 2.04.

Consider FGEDGIFRKDRLRFRDFVDALEDS, for which the protein stability index turned out to be 2.08.

Consider FGEDGIFRGDRLRFRDFVDALEDS, for which the protein stability index came to 3.19.

Regarding FGEDGIFRIDRLRFRDFVDALEDS, the protein stability index turned out to be 2.41.
